For the experiment, the target named is transcellular partners. Nature of the experiment: cell-based or functional assay.

“Soluble neuroligin-2 extracellular domain (receptor)” registered a half-maximal inhibition of insulin secretion by rat islets (20 mM glucose) of 9 nM.
